In assay [1] the target is T1, Aβ1-10 peptide (immobilized).
T1 construct: also called Ab1-10
T1 peptide: DAEFRHDSGY
Briefly: BIACORE (SPR), immobilized Aβ1-10, bivalent interaction assumed. Background: Surface plasmon resonance follows binding to a sensor surface in real time, without labels.

Assay [2] addresses T2, Aβ1-40 peptide (amino acids 1-40 of SEQ ID NO:1).
T2 construct: also called Aβ40
Briefly: comparison of unit cell parameters of the Aβ1-7 and Aβ1-40 crystals.

In assay [3] the target is T3, Aβ1-7 peptide (amino acids 1-7 of SEQ ID NO:1).
T3 construct: also called Aβ 2-7 (the part visible in the superimposed models)
T3 peptide: DAEFRHD
Briefly: X-ray crystal structure of the Fab:peptide complex.

Numbering of substitutions follows the chain as printed.

B1: 12A11 murine IgG1 kappa monoclonal antibody (antibody, V domains shown)
VH: QVTLKESGPGILKPSQTLSLTCSFSGFSLSTSGMSVGWIRQPSGKGLEWLAHIWWDDDKYYNPSLKSRLTISKDTSRNQVFLKITSVDTADTATYYCARRTTTADYFAYWGQGTTLTVSS
VL: DVLMTQTPLSLPVSLGDQASISCRSSQSIVHSNGNTYLEWYLQKPGQSPKLLIYKVSNRFSGVPDRFSGSGSGTDFTLKISRVEAEDLGIYYCFQSSHVPLTFGAGTKLELK
Molecule B1 displayed a Kd in assay [1] of 8.4 nM.

B2: Fab fragment of 12A11 (Fab, V domains shown)
VH: B1 VH
VL: B1 VL
notes: also called 12A11 Fab
For the molecule B2, the binding result in assay [2] and in assay [3] was “binds” each time.

B3: 12B4 murine IgG2a kappa monoclonal antibody (antibody, V domains shown)
VH: QVTLKESGPGILQPSQTLSLTCSFSGFSLSTNGMGVSWIRQPSGKGLEWLAHIYWDEDKRYNPSLKSRLTISKDTSNNQVFLKITNVDTADTATYYCARRRIIYDVEDYFDYWGQGTTLTVSS
VL: B1 VL with S28N, I90V, S96G
B3 displayed a Kd in assay [1] of 24.5 nM.

B4: Fab fragment of 12B4 (Fab, V domains shown)
VH: B3 VH
VL: B1 VL with S28N, I90V, S96G
notes: Fab of the murine IgG2a kappa antibody as crystallized; also called 12B4 Fab
B4: the binding result in assay [3] is on record as “binds”.

B5: Fab fragment of 3D6 (Fab, V domains shown)
VL: not shown
V domain: EVKLVESGGGLVKPGASLKLSCAASGFTFSNYGMSWVRQNSDKRLEWVASIRSGGGRTYYSDNVKGRFTISRENAKNTLYLQMSSLKSEDTALYYCVRYDHYSGSSDYWGQGTTITVSS
notes: also called 3D6 Fab
Regarding B5, the binding result in assay [3] is “binds”.

The record behind these values is patent publication US9067981 (Janssen / Centocor, dated 2015).
